T1: human TIGIT, full length, on cells (human, UniProt Q495A1 22-244)
T1 construct: also called hTIGIT; hTIGIT-CHO
T1 sequence: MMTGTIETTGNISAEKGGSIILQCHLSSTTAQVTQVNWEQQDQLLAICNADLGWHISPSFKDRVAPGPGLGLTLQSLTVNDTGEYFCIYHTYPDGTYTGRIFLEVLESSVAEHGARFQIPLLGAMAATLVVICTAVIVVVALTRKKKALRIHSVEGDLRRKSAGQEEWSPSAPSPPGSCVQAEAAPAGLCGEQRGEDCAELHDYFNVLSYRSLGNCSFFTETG

T2: hTIGIT-His (human)
T2 construct: also called His-tagged human TIGIT protein extracellular domain; soluble hTIGIT-His
T2 chain: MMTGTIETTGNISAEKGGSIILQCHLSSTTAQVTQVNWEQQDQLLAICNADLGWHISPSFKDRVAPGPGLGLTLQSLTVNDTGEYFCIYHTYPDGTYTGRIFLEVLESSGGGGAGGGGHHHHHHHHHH

T3: cTIGIT-His (cynomolgus monkey)
T3 construct: also called His-tagged cyno TIGIT protein extracellular domain; soluble cTIGIT-His
T3 chain: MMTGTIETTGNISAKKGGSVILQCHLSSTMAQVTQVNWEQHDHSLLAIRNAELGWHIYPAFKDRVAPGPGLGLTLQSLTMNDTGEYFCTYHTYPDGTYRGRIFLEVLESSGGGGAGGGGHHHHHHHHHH


Assays:
[1] = target: T1, human TIGIT, full length, on cells; assay: flow cytometry on CHO-K1 cells expressing human TIGIT
Experimental: (§1) These clones were further expanded, and antibodies were purified using a Protein G column. These purified antibodies were tested for binding to human and cyno TIGIT expressed on cell surface by flow cytometry. Stable CHO-K1 cell lines expressing full length human TIGIT clone 2A7 (Swiss-Prot Q495A1; SEQ ID NO: 80) or full length cyno TIGIT clone C10 (Swiss-Prot A0A2K5UW92; SEQ ID NO: 84) were developed. For the flow assay, cells were collected and incubated in 100 μL of HBSS buffer in the presence (or absence) of various concentrations of antibodies for 1 hr at 4° C. After washing with HBSS, antibody binding on cells was detected with 2 μg/mL of Alexa488-labeled goat anti-mouse IgG antibody (ThermoFisher Scientific, Cat #A-11001) for 30 min at 4° C. Cells were then washed and resuspended in PBS and subjected to flow cytometry using an Attune NxT flow cytometer (ThermoFisher Scientific, Waltham, Mass.). The geometric mean of the fluorescence intensity was obtained for the whole single cell population. Antibodies capable of binding to both human and cyno TIGIT expressed on cell surface were further tested for their blocking activity against recombinant human CD155 binding to human TIGIT on the surface of CHO cells. CHO-hTIGIT cells (10⁵ cells) were incubated with 2.5 μg/mL hCD155-Fc protein in the presence of various concentrations of antibody at room temperature for 1 hr. […] Cells were then washed and subjected to flow cytometry analysis.

[2] = target: T4, cynomolgus monkey TIGIT, full length, on cells (cynomolgus monkey); assay: flow cytometry on CHO-K1 cells expressing cyno TIGIT
T4 construct: Whole entry of 312 amino acids; also called cyno TIGIT; cTIGIT
Experimental: as §1

[3] = target: T1, human TIGIT, full length, on cells; assay: flow cytometry, inhibition of hCD155-Fc binding to CHO-hTIGIT cells
Experimental: as §1

hTIGIT-His = target: T2, hTIGIT-His; assay: SPR, Biacore 8K, Fab-SASA supernatant captured on BSA chip, hTIGIT-His as analyte
From the text: (§2) Oligonucleotides were designed and synthesized as Fab fragments with human IgG1/kappa constant domains for the two VH and two VL grafted human acceptors and inserted into a vector system for high throughput screening of expression levels and biophysical properties, without the need for protein purification (Zhang & Hirama, Patent Application Publication US 2012/0178110). All four combinations of VH1 (SEQ ID NO: 76) or VH2 (SEQ ID NO: 78) with VL1 (SEQ ID NO: 79) or VL2 (SEQ ID NO: 77) (FIGS. 1J-1M) were screened along with a chimera Fab mVH+mVL constructed from the mouse 24F8VH (SEQ ID NO: 5) & 24F8VL (SEQ ID NO: 6) domains and human IgG1/kappa Fab constant domains. Supernatants of the Fabs, secreted as a SASA (single-domain antibody against serum albumin) fusion proteins were analyzed by surface plasmon resonance (SPR) using a Biacore 8K instrument with Fab capture using an BSA coated chip and soluble His-tagged TIGIT as the analyte. The kinetic binding data for human and cyno TIGIT are shown in Table 9 for the five Fab fragments.

cTIGIT-His = target: T3, cTIGIT-His; assay: SPR, Biacore 8K, Fab-SASA supernatant captured on BSA chip, cTIGIT-His as analyte
From the text: as §2

| Binder | EC50 [1] | EC50 [2] | IC50 [3] | Kd (hTIGIT-His) | koff (hTIGIT-His) | kon (hTIGIT-His) | Kd (cTIGIT-His) | koff (cTIGIT-His) | kon (cTIGIT-His) |
| --- | --- | --- | --- | --- | --- | --- | --- | --- | --- |
| 22B22 (antibody, V domains shown, Mouse monoclonal antibody purified from hybridoma on Protein G; also called mAb 22B22; mouse anti-TIGIT clone 22B22) VH: EVQLVESGGGLVKPGGSLKLSCAASGFTFSSYAMSWVRQSPEKRLEWVAEISSGGSYTYYPDTVTGRFTISRDNAKNTLYLEMSSLRSEDTAMYYCARKRRDYYAMDYWGQGTSVTVSS VL: DVQITQSPSYLAASPGETITINCRASKSISKYLAWYQEKPGKTNKLLIYSGSTLQSGIPSRFSGSGSGTDFTLTISSLEPEDFAMYYCQQHNEYPWTFGGGTKLEIK | 0.507 nM | 0.58 nM | 0.83 nM |  |  |  |  |  |  |
| 28O12 (antibody, V domains shown, Mouse monoclonal antibody purified from hybridoma on Protein G; also called mAb 28O12; mouse anti-TIGIT clone 28O12) VH: EVQLVESGGGLVKPGGSLKLSCAASGFTFSNYAMSWVRQSPEKRLEWVAEISGGGSYTYHPDTVTGRFTISRDNAKNTLYLEMSSLRSEDTAMYYCARKRRDYYAMDYWGQGTSVTVSS VL: DVQITQSPSYLAASPGETITINCRASKSISKYLAWYQEKPGKTNKLLIYSGSTLQSGIPSRFSGSGSGTDFTLTISSLEPEDFAMYYCQQHNEYPWTFGGGTKLEIK | 0.638 nM | 0.71 nM | 1.16 nM |  |  |  |  |  |  |
| chimera Fab mVH+mVL (mouse 24F8VH and 24F8VL with human IgG1/kappa Fab constant domains) (Fab, V domains shown, also called mouse/human chimera Fab) VH: DVQLQESGPDLVKPSQSLSLTCTVTGYSITSGYSWHWIRQFPGNKLDWMGYVHYSGSTNYNPSLKSRISITRDTSKNQFFLQLNSVTTEDTATFYCARMDYGNYGGAMDYWGQGTSVTVSS VL: EIVMTQSHKFMSTSVGDRVSITCKASQDVRTAVAWYQQKPGQSPKLLIYSASYRYTGVPDRFTGSGSGTDFTFTISSVQAEDLAVYYCQQYYSTQWTFGGGTKLEIK |  |  |  | 0.00127 nM | 2.37e-06 s⁻¹ | 1.86e+06 M⁻¹ s⁻¹ | 0.474 nM | 0.000728 s⁻¹ | 1.54e+06 M⁻¹ s⁻¹ |

The next lines start with the values.

| EC50 [1] | EC50 [2] | IC50 [3] | Kd (hTIGIT-His) | koff (hTIGIT-His) | kon (hTIGIT-His) | Kd (cTIGIT-His) | koff (cTIGIT-His) | kon (cTIGIT-His) | Binder |
| --- | --- | --- | --- | --- | --- | --- | --- | --- | --- |
| 0.466 nM | 1.26 nM | 1.7 nM |  |  |  |  |  |  | 28P24 (antibody, V domains shown, Mouse monoclonal antibody purified from hybridoma on Protein G; also called mAb 28P24; mouse anti-TIGIT clone 28P24) VH: QVQLQQSGAELVRPGTSVKMSCKAAGYTFTNYFIGWVKQRPGHGLDWIGDIYPGGGYTNYNEKFKGKATLTADTSSSTAYMQLSSLTSEDSAIYYCVRFYGNYVFAYWGQGTLVTVSA VL: DVQITQSPSCLAASPGETITINCRASKTISKYLAWYQEKPGKTNKLLIYSGSTLQSGIPSRFSGSGSGTDFTLTISSLEPEDFAMYYCQQHNEYPWTFGGGTKLEIK |
| 0.498 nM | 1.2 nM | 1.15 nM |  |  |  |  |  |  | 21B16 (antibody, V domains shown, Mouse monoclonal antibody purified from hybridoma on Protein G; also called mAb 21B16; mouse anti-TIGIT clone 21B16) VH: EVQLVESGGGLVKPGGSLKLSCAASGFTFSTYAMSWVRQSPEKRLEWVAEISSGGTYTYFPDTVTGRFTISRDNAKNTLYLEMSSLRSEDTAMYYCARKRRDYYAMDYWGQGTSVTVSS VL: DVQITQSPSYLAASPGETITINCRASKSISKYLAWYQEKPGKTNKLLIYSGSTLQSGIPSRFSGSGSGTDFTLTISSLEPEDFAVYYCQQHNEYPWTFGGGTKLEIK |
| 0.506 nM | 0.631 nM | 1.66 nM |  |  |  |  |  |  | 21B9 (antibody, V domains shown, Mouse monoclonal antibody purified from hybridoma on Protein G; also called mAb 21B9; mouse anti-TIGIT clone 21B9) VH: EVQLVESGGGLVKPGGSLKLSCTASGFTFSSYAMSWVRQSPEKRLEWVAEISSGGSYTYYTDTVTGRFTISRDNAKNTLYLEMSSLRSEDTAMYYCARKRRDYYGMDYWGQGTSVTVSS VL: DVQITQSPSYLAASPGETITINCRASKSISKYLAWYQEKPGKTNKLLIYSGSTLQTGIPSRFSGSGSGTDFTLTISSLEPEDFAMYYCQQHNEYPWTFGGGTKLEIK |
